{"source": "paper PMC11825483", "assay": "hepatic Ceacam1 mRNA and protein levels", "details": "glycan changed form; control: Slc35c1 flox/flox mice"}
{"protein": "CEACAM1 (Ceacam1): Slc35c1 cKO (protein) parent chain: MELASAHLHKGQVPWGGLLLTASLLASWSPATTAEVTIEAVPPQVAEDNNVLLLVHNLPLALGAFAWYKGNTTAIDKEIARFVPNSNMNFTGQAYSGREIIYSNGSLLFQMITMKDMGVYTLDMTDENYRRTQATVRFHVHQPVTQPFLQVTNTTVKELDSVTLTCLSNDIGANIQWLFNSQSLQLTERMTLSQNNSILRIDPIKREDAGEYQCEISNPVSVRRSNSIKLDIIFDPTQGGLSDGAIAGIVIGVVAGVALIAGLAYFLYSRKSGGGSDQRDLTEHKPSTSNHNLAPSDNSPNKVDDVAYTVLNFNSQQPNRPTSAPSSPRATETVYSEVKKK", "values": [{"measurement": "expression_or_secretion", "value": "no change"}]}
